Measured values reported in patent US9260500B2, “Peptide and use thereof” (Takeda Pharmaceutical Company Limited, priority 2009, dated 2016).
Starred links: 1 amine or outer side, 2 acyl side, 3 side chain; linkers in the order of their positions; H or OH if unused. Non-standard residues stand in square brackets, D forms with d. *: point of attachment. X11 = ((1S)-1-carboxy-3-methylbutyl)carbamoyl, CC(C)C[C@H](NC(=O)*)C(=O)O; tBuAla = CC(C)(C)C[C@H](N)C(=O)O; 4Pal = N[C@@H](Cc1ccncc1)C(=O)O; dHyp = O=C(O)[C@H]1C[C@H](O)CN1; Cha = N[C@@H](CC1CCCCC1)C(=O)O; Suc = O=C(CCC(=O)[*:2])[*:1]; Iva = CC[C@](C)(N)C(=O)O; Aib = CC(C)(N)C(=O)O

Legend:
human Y2 receptor [1] = target: T1, human Y2 receptor (Homo sapiens, UniProt P49146); assay: Receptor Binding Assay (RBA) for Human Y2, [125I]-PYY displacement on hY2R/CHO membrane fraction; details: IC50 of test compound/IC50 of PYY(3-36) (PYY(3-36) taken as 1)
T1 construct: expressed in transfected cells; membrane fraction
T1 sequence (P49146 1-381): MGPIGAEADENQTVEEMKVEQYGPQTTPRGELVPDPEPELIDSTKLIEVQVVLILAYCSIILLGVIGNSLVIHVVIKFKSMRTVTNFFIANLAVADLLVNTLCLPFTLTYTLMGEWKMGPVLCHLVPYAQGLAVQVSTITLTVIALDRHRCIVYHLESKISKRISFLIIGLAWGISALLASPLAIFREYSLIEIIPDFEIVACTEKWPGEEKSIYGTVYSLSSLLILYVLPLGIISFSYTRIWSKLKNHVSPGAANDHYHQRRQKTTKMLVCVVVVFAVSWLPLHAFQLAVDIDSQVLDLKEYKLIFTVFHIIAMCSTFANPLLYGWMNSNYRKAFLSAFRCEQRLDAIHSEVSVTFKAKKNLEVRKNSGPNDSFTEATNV
In short: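 Read-out is [125I]-PYY displacement from membranes of CHO/dhfr− cells stably transfected with human Y2R. Membranes were obtained by disrupting cells in a buffer of 10 mM NaHCO3, 5 mM EDTA and protease inhibitors.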

human Y2 receptor [2] = target: T1, human Y2 receptor; assay: Human Y2 Receptor G Protein Binding Assay (GBA), [35S]GTPγS; type: biochemical; details: EC50 of test compound/EC50 of PYY(3-36) (PYY3-36 taken as 1), hY2R/CHO membrane fraction
In short: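 Agonism measured as [35S]GTPγS binding, read by GF/C filtration and scintillation counting after 120 min at room temperature, using human Y2 membranes at 1 μg protein/mL in pH 7.4 Tris/MgCl2/NaCl/GDP buffer. Compound serially diluted 100 μM–1 nM; EC50 normalized to PYY(3-36) (ratio = compound/PYY).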

male C57EL/6J mice = assay: 3-Days Continuous Subcutaneous Administration Test-1 (food intake suppressing activity); type: in vivo, mouse; details: 0.03 mg/kg/day, subcutaneous Alzet pump, food consumption over 3 days; relative to food intake suppression rate for PYY(3-36) (1 mg/kg/day) taken as 100%
Experimental: (4) Test Method: 3-Days Continuous Subcutaneous Administration Test-1
The food intake suppressing activity of the compound of the present invention was examined by the method described below.
The test compound was dissolved in 50% DMSO so that sustained release would occur at 0.03 mg/kg/day, and the solution was filled in the Alzet Pump (Alzet model: 1003D, sustained release rate: 1 μL/hr, capacity: 100 μL). After the filling, the pump was placed in a 2 mL Eppendorf tube containing 330 μL of physiological saline, and incubated at 37° C. for 2 hours or more. Thereafter, this pump was subcutaneously embedded in the back of each mouse by the method described below. After weighing, each male […] mice at 12-13 weeks of age (25° C., allowed to take food and water ad libitum; 12-hour bright-12-hour dark cycle, lighting turned on at 08:00) was anesthetized with diethyl ether; the skin in the upper back thereof was incised, and the above-mentioned pump was embedded subcutaneously. Thereafter, several drops of penicillin solution (100000 units/mL) were added to the incised part, and the incision was sutured using Michel's surgical needle. This mouse was returned to the rearing cage (reared alone), and given previously weighed food; 3 days later, the amount of remaining food was measured. Food consumption was calculated by subtracting the amount of remaining food after 3 days from the weight of the food given on the day of pump embedding. The food intake suppressing activity of each test compound was expressed as a food intake suppression rate (%) relative to the food intake suppression rate for PYY(3-36) (1 mg/kg/day) taken as 100%.

Row | Substance | RBA IC50 Ratio (human Y2 receptor [1]) | GBA EC50 Ratio (human Y2 receptor [2]) | food intake suppression rate (%) (male C57EL/6J mice)
1 | 3-Carboxypropionyl-[D-Hyp24, Iva25, Pya(4)26, Cha27,36, Leu(Me)28, Lys30, Aib31]-PYY(23-36) (Suc-S[dHyp][Iva][4Pal][Cha][tBuAla]NK[Aib]TRQR[Cha]-NH2; SMILES CC[C@](C)(NC(=O)[C@H]1C[C@H](O)CN1C(=O)[C@H](CO)NC(=O)CCC(=O)O)C(=O)N[C@@H](Cc1ccncc1)C(=O)N[C@@H](CC1CCCCC1)C(=O)N[C@@H](CC(C)(C)C)C(=O)N[C@@H](CC(N)=O)C(=O)N[C@@H](CCCCN)C(=O)NC(C)(C)C(=O)N[C@H](C(=O)N[C@@H](CCCNC(=N)N)C(=O)N[C@@H](CCC(N)=O)C(=O)N[C@@H](CCCNC(=N)N)C(=O)N[C@@H](CC1CCCCC1)C(N)=O)[C@@H](C)O) [compound No. 350] | 0.92 | 1.9 | 41
2 | 3-Carboxypropionyl-[D-Pro24, Pya(4)26, Cha27,36, Aib28,31, Lys30]-PYY(23-36) (Suc-S[dP]R[4Pal][Cha][Aib]NK[Aib]TRQR[Cha]-NH2; SMILES C[C@@H](O)[C@H](NC(=O)C(C)(C)NC(=O)[C@H](CCCCN)NC(=O)[C@H](CC(N)=O)NC(=O)C(C)(C)NC(=O)[C@H](CC1CCCCC1)NC(=O)[C@H](Cc1ccncc1)NC(=O)[C@H](CCCNC(=N)N)NC(=O)[C@H]1CCCN1C(=O)[C@H](CO)NC(=O)CCC(=O)O)C(=O)N[C@@H](CCCNC(=N)N)C(=O)N[C@@H](CCC(N)=O)C(=O)N[C@@H](CCCNC(=N)N)C(=O)N[C@@H](CC1CCCCC1)C(N)=O) [compound No. 217] | 0.96 | 1.2 | 28
3 | [(1S)-1-carboxy-3-methylbutyl]carbamoyl-[D-Pro24, Cha27,36, Leu(Me)28, Lys30, Aib31]-PYY(23-36) (X11-S[dP]RH[Cha][tBuAla]NK[Aib]TRQR[Cha]-NH2; SMILES CC(C)C[C@H](NC(=O)N[C@@H](CO)C(=O)N1CCC[C@@H]1C(=O)N[C@@H](CCCNC(=N)N)C(=O)N[C@@H](Cc1c[nH]cn1)C(=O)N[C@@H](CC1CCCCC1)C(=O)N[C@@H](CC(C)(C)C)C(=O)N[C@@H](CC(N)=O)C(=O)N[C@@H](CCCCN)C(=O)NC(C)(C)C(=O)N[C@H](C(=O)N[C@@H](CCCNC(=N)N)C(=O)N[C@@H](CCC(N)=O)C(=O)N[C@@H](CCCNC(=N)N)C(=O)N[C@@H](CC1CCCCC1)C(N)=O)[C@@H](C)O)C(=O)O) [compound No. 253] |  |  | 19

More lines, main results first:

Row | RBA IC50 Ratio (human Y2 receptor [1]) | GBA EC50 Ratio (human Y2 receptor [2]) | Substance | food intake suppression rate (%) (male C57EL/6J mice)
4 | 0.54 | 0.78 | 2-Methylbutanoyl-[D-Pro24, Pya(4)26, Cha27,36, Aib28,31, Lys30]-PYY(23-36) ({2‑methylbutanoyl}-S[dP]R[4Pal][Cha][Aib]NK[Aib]TRQR[Cha]-NH2) [compound No. 276] | 16
5 | 1.2 | 1.2 | 3-Carboxypropionyl-[D-Pro24, Pya(4)26, Cha27,36, Aib28,31, Lys30]-PYY(24-36) (Suc-[dP]R[4Pal][Cha][Aib]NK[Aib]TRQR[Cha]-NH2; SMILES C[C@@H](O)[C@H](NC(=O)C(C)(C)NC(=O)[C@H](CCCCN)NC(=O)[C@H](CC(N)=O)NC(=O)C(C)(C)NC(=O)[C@H](CC1CCCCC1)NC(=O)[C@H](Cc1ccncc1)NC(=O)[C@H](CCCNC(=N)N)NC(=O)[C@H]1CCCN1C(=O)CCC(=O)O)C(=O)N[C@@H](CCCNC(=N)N)C(=O)N[C@@H](CCC(N)=O)C(=O)N[C@@H](CCCNC(=N)N)C(=O)N[C@@H](CC1CCCCC1)C(N)=O) [compound No. 303] | 20
